B1: Mortality factor 4-like protein 1 (Homo sapiens), Q9UBU8-2 (parent)
chain: MAPKQDPKPKFQEGERVLCFHGPLLYEAKCVKVAIKDKQVKYFIHYSGWNKNWDEWVPESRVLKYVDTNLQKQRELQKANQEQYAEGKMRGAAPGKKTSGLQQKNVEVKTKKNKQKTPGNGDGGSTSETPQPPRKKRARVDPTVENEETFMNRVEVKVKIPEELKPWLVDDWDLITRQKQLFYLPAKKNVDSILEDYANYKKSRGNTDNKEYAVNEVVAGIKEYFNVMLGTQLLYKFERPQYAEILADHPDAPMSQVYGAPHLLRLFVRIGAMLAYTPLDEKSLALLLNYLHDFLKYLAKNSATLFSASDYEVAPPEYHRKAV

Variants of: B1
Conditions: with mrgbp_human MRGBP

Row | Variant | effect of a mutation on the interaction
1 | L291A | disrupting interaction strength

Variants of: B1
Conditions: with mr1l1_human MRFAP1L1, Q96HT8
mr1l1_human MRFAP1L1, Q96HT8, sequence (Q96HT8 whole entry): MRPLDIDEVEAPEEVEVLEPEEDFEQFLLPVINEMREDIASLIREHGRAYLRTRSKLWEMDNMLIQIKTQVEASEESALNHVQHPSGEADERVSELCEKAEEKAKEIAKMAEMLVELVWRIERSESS

Row | Variant | effect of a mutation on the interaction
2 | V169E | disrupting interaction
